The values that follow come from the RNAGym collection of RNA variant scans (doi:10.1073/pnas.2313332121).

The chains are these.
B1: TPR t1 (parent)
chain: GACCAAUCUGCCCUCAGAGCUCGAGAACAUCUUCGGAUGCAGAGGAGGCAGGCUUCGGUGGCGCGAUAGCGCCAACGUCCUCAACCUCCAAUGCAUCCCACCACAUGAUGAUGCCUGAAGAGCCUUGGUUUUUUG

Variants of B1 are the subject of this series. The series can be described thus: polymerase ribozyme fitness, log enrichment relative to wild type (log ratio); higher = more active; in vitro selection for triplet polymerase activity. In a few lines:
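Fitness compares each genotype's enrichment to that of the wild type on a logarithmic scale, averaging replicates with inverse-variance weights. The logarithm is base 2. Enrichment came from Illumina sequencing of input and output libraries after one triplicate round of in vitro selection, which included frozen incubation at −7 °C, of PCR-built, transcribed mutant libraries of each subunit of a heterodimeric triplet polymerase ribozyme. Only genotypes with ≥10 input reads and ≥1 read per output were kept.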
Take C3A U7A G57U G60C A83U A121C: the “polymerase ribozyme fitness (log ratio)” value was -1.26.
In the case of A2U C11G G120A U132A, the “polymerase ribozyme fitness (log ratio)” value amounted to 0.742.
Next, A2G U14A C62A: -3.69.
As to A2G C34A U55A U112C, the “polymerase ribozyme fitness (log ratio)” value was -0.554.
Under A2G G36A C49G G61U A83U G110U U129C stands -4.82; under C3A G71U C115G A118U, -4.97; under C3U C4A U14G U32G A37G A46C C49A C53U C114G U116C, -5.66.
On to C3U C12G A46C, for which the “polymerase ribozyme fitness (log ratio)” value is -0.734.
Under A2G G51U C114U stands -6.82.
Under A2U G17A stands -5.45; under A2U C11U A27U G48U C64A C99G G113C, -6.93.
For the variant A2U C94U, the “polymerase ribozyme fitness (log ratio)” value was -3.62.
Next, C3U G23C G60A U106A A111C: -6.81.
For C3U C34G C73U C123U, the “polymerase ribozyme fitness (log ratio)” value is -4.72.
Under C3U C13U G120A stands 1.11; under C3U A84U, -0.78.
On to C3G C70G C80U G128C, for which the “polymerase ribozyme fitness (log ratio)” value is -1.99.
Next, C3A A37U C114U: -3.95; C3U C12A: -0.942; A2G G77A C102A C123G G128C: -3.09.
Next, C3G G120A C124G G128C: 0.839; C3A A29U G63A C82A A91C C114U G128U: -3.24.
On to A2C G44A U59A U96A U112A U129A, for which the “polymerase ribozyme fitness (log ratio)” value is -2.9.
With A2C C79A U129C, the “polymerase ribozyme fitness (log ratio)” value is -2.39.
Under C3U G39A U54G G120C stands 0.423.
Turning to A2G C12G G17A U54C C88U A91U C101U A105U C114G U131A, the “polymerase ribozyme fitness (log ratio)” value is -5.89.
Turning to A2U C115A, the “polymerase ribozyme fitness (log ratio)” value is -2.22.
As to C3G A95G C101A A111C, the “polymerase ribozyme fitness (log ratio)” value is -2.16.
Next, A2C G45A G57A C114U C124U G127C: -5.9; A2U G93U: -2.62.
Next, C3G C13U G45U G48A: -2.41; A2U C64U A83G A111C: -4.94; A2C G117U U129A: -4.64.
For C3G G39C C53G G113U, the “polymerase ribozyme fitness (log ratio)” value is -5.93.
C3G G36U C72G C86A C99G U112G U129C U134G: the “polymerase ribozyme fitness (log ratio)” value is -5.02.
Under C3A C85A stands -3.94.
Next, C3A C85U: -2.76; C3U C22G C56U G117C: -4.66; A2U A37U G48A C53U G60A C85A: -3.47.
Under A2U C64U C89G stands -5.12.
As for A2G C4U G35A G77A C98U C101A, the “polymerase ribozyme fitness (log ratio)” value is -6.32.
For C3A G45U C72G U87C, the “polymerase ribozyme fitness (log ratio)” value is -3.73.
Next, A2C U7A C49U U96A C101A U125G: -3.99; C3G C20U A46G C124U: -2.93.
Under A2C G63U C115U stands -4.82; under C3G C56A C86G C104A, -5.13.
Next, A2C C13U G110A: -2.59; A2U G120C: -1.67; A2U G120U: -1.32.
In the case of A2U C12A C49U, the “polymerase ribozyme fitness (log ratio)” value was -3.6.
Under A2G C11G U38G C82G stands -4.28; under C3U A26U C49U A118U, -3.26.
Regarding C3A C34U C53A C89A C123G, the “polymerase ribozyme fitness (log ratio)” value was -5.9.
With C3U A41C G42A U78C U92G, the “polymerase ribozyme fitness (log ratio)” value is -3.33.
Under A2U C13G G60U C85A stands -4.99; under A2U A37U C72A U78A C124G, -0.247; under A2G C4U C79A C115A, -5.2.
Next, C3G U112A C115A: -2.03.
In the case of A2G A74C, the “polymerase ribozyme fitness (log ratio)” value is -0.276.
Under A2C G63U stands -2.33.
Under A2U C8U G36U C80U G127C U130C stands -3.03.
Next, C3U C11A: -1.47; C3U G39U C73A C98U: -2.51; C3U A6C C13A: -3.09.
Regarding C3U A27U G52U C72U C76U C85U U116G C124U U129C, the “polymerase ribozyme fitness (log ratio)” value is -7.12.
Under A2U U7C G44C G52C C56A stands -4.24; under A2C C49G G63C A74U A75U C124A, -3.35; under A2U A5G C12U U112G, -1.79.
Under A2G A27U C73G C79G C104U stands -6.8; under A2U G57U G117U, -5.98.
On to A2C C115U, for which the “polymerase ribozyme fitness (log ratio)” value was -2.66.
With A2C G71A C82A, the “polymerase ribozyme fitness (log ratio)” value is -2.88.
Consider A2C G117C U131C U133C, for which the “polymerase ribozyme fitness (log ratio)” value was -4.66.
Next, C3U C79G C97G A121G: -5.3; C3G U109G: -5.75.
Under A2G U9C G69C stands -0.585; under A2U C34A G60A G120U U125A U132A, -3.85; under A2G U59C C85U C124A, 0.474.
Next, C3A C72U G93U A111G: -3.35.
With A2G C104U, the “polymerase ribozyme fitness (log ratio)” value was determined as 0.0974.
With A2C G71A U112G, the “polymerase ribozyme fitness (log ratio)” value was -2.44.
Under C3U C79A G117A stands -4; under A2G G110A, -1.38; under A2U U32C C62A, -4.44.
In the case of A2U C73U, the “polymerase ribozyme fitness (log ratio)” value was -2.69.
Next, C3U C11A G47A U87G: -2.77.
C3A G61A C79U: the “polymerase ribozyme fitness (log ratio)” value is -1.27.
Next, A2C C62U A75U G110A: -4.14.
As for A2U A5G U9G C13U C64U G122A, the “polymerase ribozyme fitness (log ratio)” value was -1.31.
As to C3A U9A C28U C53A C94A, the “polymerase ribozyme fitness (log ratio)” value is -4.65.
Turning to C3U C11U U87A C124U, the “polymerase ribozyme fitness (log ratio)” value worked out at 0.336.
Under A2U C11U C22A A41C G71U C82A C88U A121G stands -6.23; under C3U C8G A29G, -1.43; under C3U G17A G36C C49A A50U G58C G60A C88U G117U, -6.3.
In the case of A2C C72A G110U, the “polymerase ribozyme fitness (log ratio)” value is -4.2.
Under C3U C13A A29U G44C C124G U132C stands -3.39.
Under A2U C8A A41U C101U U130G stands -1.84; under C3A C20G A119U A121U U132C, -3.91.
Under A2C G36A A50U G77A C123U stands -2.76.
Regarding C3A G120U, the “polymerase ribozyme fitness (log ratio)” value was -0.479.
Consider C3A G47A C72A A100C, for which the “polymerase ribozyme fitness (log ratio)” value was -2.89.
As to A2C C53A, the “polymerase ribozyme fitness (log ratio)” value is -1.9.
Under C3A A6C A91U U125A stands -3.02; under C3U C11U A37U C53U, -0.631; under C3U A37C C53G U55C, -1.11.
In the case of A2C C15A G25A G71U C80U G120C G135C, the “polymerase ribozyme fitness (log ratio)” value was -4.64.
Under C3A C12A stands -1.53; under A2C C31G C79U G117U U126A, -4.9.
Under C3G U7G C88G C114U stands -2.56; under A2G C88G G113C G128A U129G, -5.6; under A2U C12A A43U G120A, -1.89.
Under A2G C11G G61A U129A G135U stands -2.91.
In the case of C3G A5U C11U C73U C89G C123U, the “polymerase ribozyme fitness (log ratio)” value is -1.08.
As to C3U C56G G58U G113U, the “polymerase ribozyme fitness (log ratio)” value is -4.35.
For A2U A5G C12U G61A U112G, the “polymerase ribozyme fitness (log ratio)” value was -2.18.
Turning to C3A C12U G42A G44C C79U C88A A118G G120A, the “polymerase ribozyme fitness (log ratio)” value is -1.44.
C3U C22G G39U C49G C70U G110U: the “polymerase ribozyme fitness (log ratio)” value is -5.2.
Under A2U G17C A26U G39A U59G G61U A83G C115U stands -6.19; under A2C U78C, -1.64.
Under A2U C70G stands -5.04.
As to C3U C11G U21G G113U G127A, the “polymerase ribozyme fitness (log ratio)” value is -2.58.
As for C3A C97U, the “polymerase ribozyme fitness (log ratio)” value was -2.33.
Take C3A G52U C72A C89G C104A G113U A119U C123G: the “polymerase ribozyme fitness (log ratio)” value was -5.02.
Take C3U C12A C82A: the “polymerase ribozyme fitness (log ratio)” value is -1.8.
Under C3U C82G stands -0.798.
Take C3U C62G: the “polymerase ribozyme fitness (log ratio)” value was -2.24.
With C3A C99U, the “polymerase ribozyme fitness (log ratio)” value is -3.8.
Under C3U C28U G71A C89A C123G U130C stands -4.19; under C3A G110C C123G, -4.82.
Under C3U C70A stands -1.81; under A2U C8U G45A C73U A95G G120A, -0.341.
Under C3A C8A C53G C101A stands -1.64; under C3A U14G A119U G120A, -1.62; under C3U C34A C76U G120C, -3.72.
Turning to C3A C8A C62A C97U, the “polymerase ribozyme fitness (log ratio)” value is -2.46.
A2C G57C C72A C101A G135U: the “polymerase ribozyme fitness (log ratio)” value is -3.06.
Next, A2U G63U: -4.25; A2C U55C C82G A91C A105U C123G: -6.66.
Next, C3A G117C: -3.87; C3U C73U: -0.279.
Next, A2G G77U C86G G135U: -2.95; C3A C115A: -1.99.
For A2C U9G G61U G110A, the “polymerase ribozyme fitness (log ratio)” value was -2.69.
Next, C3A A74U G120U U125A: -0.657.
C3U G39U G47A G117A: the “polymerase ribozyme fitness (log ratio)” value is -4.33.
Under C3U C20G stands -3.47; under C3U C62G G113A C114G A121U, -4.51; under A2U C13G C62U, -2.85.
Next, C3U C4A G51C C53A G71U A103G C114U: -5.71; A2U C3G C4U C72U G77A U92G A118U C123G G128A: -3.1; A2U C28U C49A C101G U106A: -4.56.
Next, A2U C64U C115G C124U: -4.43; C3U A43C A50G C73U: -2.2.
For the variant C3G C70G, the “polymerase ribozyme fitness (log ratio)” value is -4.26.
Under C3U C70A C86U A118U stands -1.74.
Next, A2C C102A: -3.35; A2U G17A C28U A43U G61C G110A: -6.04; C3A C49G A75U U125A: -2.69.
Next, C3A U81G C115U: -6.22; A2G A29G: -1.34.
Take C3U C15U U106G: the “polymerase ribozyme fitness (log ratio)” value was -3.3.
Under A2G G19A stands -2.68; under A2U C3G G63A, -3.64.
Consider C3A C89U, for which the “polymerase ribozyme fitness (log ratio)” value was -1.82.
Next, A2C G117A: -3; A2C U21A C89G: -4.49.
Next, C3G C64U G69A: -2.41.
